Reference: the nanobody polyreactivity screen of Harvey et al. (2022)

Assay: yeast display, Sf9 membrane polyspecificity reagent, FACS + sequencing; frameworks hold sequencing errors
In short: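 Genes from sorted yeast were amplified by colony PCR, read by MiSeq 2 × 250 sequencing and filtered on CDR length. These cells carried a synthetic nanobody library in Saccharomyces cerevisiae BJ5465 and were sorted by FACS into low and high (top ~1%) gates on anti-HA and streptavidin fluorescence. Polyreactivity is labelled according to the gate of origin.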

| Sequence | polyreactivity (PSR sort gate) |
| --- | --- |
| QVQLVESGGGLVQAGGSLRLSCAASGRTFYGYAMGWYRQAPGKERELVATISGSGASTYYADSVKGRFTISRDNAKNTVYLQMNSLKPEVTAVYYFAARYVTNRHSRYYYWGQGTQVTVSS | high polyreactivity |
| QVQLVESGGGLVQAGGSLRLSCAASGRTFYGYGMGWYRQAAGKEREFVAAISYSGGSTYYADSVKGRFTISRDNAKNTVYLQMNSLKPEDTAVYYCAARNRGSGFYYWGQGTQVTVSS | high polyreactivity |
| QVQLVESGGGLVQAGGSLRLSCAASGRTFYGYVMGWYRQAPGQERELVAAISRSVGSTYYADSVKGRFTISRDNAKNTVYLQMNSLKPEDTAVYYCATSVYGGVDYWGQGTQVTVSS | high polyreactivity |
| QVQLVESGGGLVQAGGSLRLSCAASGRTFYINAMGWYRQAPGKERELVAGINSRGGSTYADSVKGRFTISRDNAKNTVYLQMNSLNPEDTAVYYCNARRKYLGYNYWGQGTQVTVSS | high polyreactivity |
| QVQLVESGGGLVQAGGSLRLSCAASGRTFYINAMGWYRQAPGKERELVATITRSGGSTYYADSVKGRFTISRDNAKNTVYLQMNSLKPEDTAVYYCAAGGGYYRYRDYDYWGQGTQVTVSS | high polyreactivity |
| QVQLVESGGGLVQAGGSLRLSCAASGRTFYIYAMGWYRQAPGKERELVAAITSVGSTNYADSVKGRFTISRDNAKNTVYLQMNSLKQEVTAVYYCAAESTEGTSGDYDYWGQGTQVTVSS | low polyreactivity |
| QVQLVESGGGLVQAGGSLRLSCAASGRTFYIYAMGWYRQAPGNERELVADISSSDDSTYYADSEKGRFTISRDNAKNTVYLQMNSLKPEDTAVYYCAAELYYFFDEHYYWGQGTQVTVSS | low polyreactivity |
| QVQLVESGGGLVQAGGSLRLSCAASGRTFYKNAMGWYRQAPGKEREFVASISVSGGRTYYADSVKGRFTISRDNAKNTVYLQMNSLKQEDTAVYYCNARASPLSQRDYWGQGTQVTVSS | low polyreactivity |
| QVQLVESGGGLVQAGGSLRLSCAASGRTFYKNAMGWYRQATGKERELVARISRGGSTNYADSVKGRFTISRDNAKNTVYLQMNSLKPEDTAVYYCAKEYGTHGKTYDYWGQGTQVTVSS | high polyreactivity |
| QVQLVESGGGLVQAGGSLRLSCAASGRTFYKYAMGWSRQAPGKERELVAVINWSGGRTYADSVKGRFTISRDNAKNTVYLQMNSLKPEDTAVYYCAADRGGLTHRWERNDYWGQGTQVTVSS | low polyreactivity |
| QVQLVESGGGLVQAGGSLRLSCAASGRTFYKYVMVWYRQAPGKERELVAAITRSGGRTYYADSVKGRFTISRDNAKNTVYLHMNSLKPEDTAVYYCAAASYSGHGRYDYWGQGTQVTVSS | high polyreactivity |
| QVQLVESGGGLVQAGGSLRLSCAASGRTFYLYAMGWYIQAPGKERELVAGISRSGGSTYYADSVKGRFTISRDNAKNTVYLQMNSLKPEDTAVYYCAAGYYYWGQGTQVTVSS | high polyreactivity |
| QVQLVESGGGLVQAGGSLRLSCAASGRTFYLYTKGWYRQAPGKERELVAAISRGGRTYADSVKGRFTISRDNAKNTVYLQMNSLKPEDTAVDYCNRELTSPRRWHVSRAYDYWGQGTQVTVSS | low polyreactivity |
| QVQLVESGGGLVQAGGSLRLSCAASGRTFYLYTMGWYRQAPGKEREFVAIISRSGASTRYADSVKGRFTISRDNAKNTVYLQMNRLKPEDTAVYYCAAYVGYPYDYWGQGTQVTVSS | high polyreactivity |
| QVQLVESGGGLVQAGGSLRLSCAASGRTFYNNAMGWYRQAPGKERELVAAISWSGGSTFYADSVKGRFTISRDNAKKTVYLQMNSLKPEDTAVYYCAALGRPYGSDYWGQGTQVTVSS | high polyreactivity |
| QVQLVESGGGLVQAGGSLRLSCAASGRTFYNYAMGWYRQAPGKERELVASIRKNGGSTYYADSVKGRFTISRDNAKNTVYLQMNSLKPEDTAVYYCAARYWGISRIFPSKYDYWGQGTQVTVSS | high polyreactivity |
| QVQLVESGGGLVQAGGSLRLSCAASGRTFYPNAMGWSRQAPGKEREVVAAINSGGSTYYADSVKGRFTISRDKAKNTVYLQMNSLKPEDTAVYYCNAERRIAYEYWGQGTQVTVSS | low polyreactivity |
